Legend:
[1] = target: the molecule itself; experiment: SEC-MALS; pH 8; 100 mM NaCl, 20 mM Tris-HCl; 100-μL injection of 3.47 mg/mL (89.36 μM) CynD; Superdex 200 increase 10/300 GL; size of the oligomers
[2] = target: the molecule itself; experiment: SEC-MALS; pH 10; 100 mM NaCl, 20 mM CAPS; 100-μL injection of 3.47 mg/mL (89.36 μM) CynD; Superdex 200 increase 10/300 GL; size of the oligomers
[3] = target: the molecule itself; experiment: SEC-MALS; pH 9; 100 mM NaCl, 20 mM Tris-HCl; 100-μL injection of 3.47 mg/mL (89.36 μM) CynD; Superdex 200 increase 10/300 GL; size of the oligomers

B1: Cyanide dihydratase CynD from Bacillus safensis PER-URP-08 (CynD_(PER-URP-08)), recombinant with C-terminal 6xHis tag (enzyme, UniProt P0DXY3 1-330, looked up)
chain: MTSIYPKFRAAAVQAAPVYLNLEATVEKSCELIDEAASNGAKLVAFPEAFLPGYPWFAFIGHPEYTRKFYHELYKNAVEIPSLAIQKISEAAKRNETYVCISCSEKDGGSLYLAQLWFNPNGDLIGKHRKMRASVAERLIWGDGSGSMMPVFQTDIGNLGGLMCWEHQVPLDLMAMNAQNEQVHVASWPGYFDDEISSRYYAIATQTFVLMTSSIYTEEMKEMICLTQEQRDYFETFKSGHTCIYGPDGEPISDMVPAETEGIAYAEIDVERVIDYKYYIDPAGHYSNQSLSMNFNQQPTPVVKQLYHQKNEVFTYEDIQYQHGILEEKV
notes: Cyanide dihydratase CynD of Bacillus safensis PER-URP-08, locus EGI07_08135; monomer 38.5 kDa; The forward primer carries the NdeI site CATATG followed by a further atg, so an added N-terminal Met may be present; also called recombinant CynD; EGI07_08135; source: E. coli BL21(DE3)/pLysS, purified (Ni-NTA, size exclusion chromatography); not shown: 6xHis, C-terminal, kept
[1]
  stoichiometry N: 24 to 48 mer
[2]
  stoichiometry N: 3 to 5 mer
[3]
  stoichiometry N: 4 to 6 mer
